“Also recorded” adds a separate entry of the source.
T1: GST-C1 (PKCl 131-186) / His-PKCl Δ223 interaction (Homo sapiens, UniProt P41743)
T1 sequence (P41743 233-596): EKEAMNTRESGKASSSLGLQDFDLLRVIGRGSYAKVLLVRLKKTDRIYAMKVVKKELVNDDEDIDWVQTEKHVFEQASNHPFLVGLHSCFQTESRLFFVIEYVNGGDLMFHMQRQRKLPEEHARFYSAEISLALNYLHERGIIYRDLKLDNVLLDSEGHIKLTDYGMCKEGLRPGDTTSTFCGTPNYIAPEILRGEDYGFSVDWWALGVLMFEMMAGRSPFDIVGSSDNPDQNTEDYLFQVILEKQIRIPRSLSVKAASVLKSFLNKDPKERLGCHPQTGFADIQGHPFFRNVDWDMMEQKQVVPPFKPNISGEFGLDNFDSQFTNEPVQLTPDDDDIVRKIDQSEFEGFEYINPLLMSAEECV

T2: GST-PSR-C1 (PKCl 100-185) / His-PKCl Δ223 interaction (Homo sapiens, UniProt P41743)
T2 sequence (P41743 233-596): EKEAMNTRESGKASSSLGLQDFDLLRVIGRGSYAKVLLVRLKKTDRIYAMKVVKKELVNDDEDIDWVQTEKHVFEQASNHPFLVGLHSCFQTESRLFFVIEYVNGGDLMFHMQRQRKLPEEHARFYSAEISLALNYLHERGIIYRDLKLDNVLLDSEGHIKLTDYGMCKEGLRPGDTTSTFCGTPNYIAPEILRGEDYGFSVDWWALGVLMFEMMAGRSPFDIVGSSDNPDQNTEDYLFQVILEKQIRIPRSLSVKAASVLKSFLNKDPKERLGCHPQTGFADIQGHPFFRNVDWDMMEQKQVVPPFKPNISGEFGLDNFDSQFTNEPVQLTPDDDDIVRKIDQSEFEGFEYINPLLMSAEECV

T3: PSRtide (biotin-KSIYRRGSRRWRKLYRA)
T3 chain: KSIYRRGSRRWRKLYRA


Key:
[1] = test system: PDK1; test: Protein kinase activity assay, PDK1; assay type: biochemical, human; details: PDK1 wt / PDK1 50-359
Description: For the expression and purification of protein kinases fused to GST, pEBG-2T derived plasmids were transfected into 8×14.5 cm dishes containing HEK293 cells using the PEI method ([…] and […]/14.5 cm dish). The cells were lysed after 48 h in a buffer containing 50 mM Tris-HCl pH 7.5, 1 mM EGTA, 1 mM EDTA, 1% (w/v) Triton X-100, 1 mM sodium orthovanadate, […], 5 mM sodium pyrophosphate, 0.27 M sucrose, 0.1% β-mercaptoethanol, and 1 tablet of protease inhibitor cocktail per 50 ml of buffer. Lysates were frozen in liquid nitrogen and kept at −80° C. until required. Purification involved incubation of the cleared lysate with glutathione sepharose, followed by 2 washes with 0.5 M NaCl in lysis buffer, 8 washes with a buffer containing 50 mM Tris-HCl, 0.1 mM EGTA and 0.1% β-mercaptoethanol (buffer A), and a last wash with buffer A supplemented with 0.26 M sucrose. Elution was performed with this last buffer containing 20 mM glutathione and the GST-fusion protein was cleared from resin by filtration through a “SigmaPrep” spin column (Sigma). GST-fusion proteins were aliquoted, snap frozen in liquid nitrogen and kept at −80° C. until use. Purity at this stage was above 85% as estimated by SDS-PAGE and staining with Coomassie Brilliant Blue R250. PRK2 was expressed from pEBG-2T-PRK2 (Balendran, A. et al. J Biol Chem 275, 20806-13. (2000)), SGK1 from pEBG-2T-SGK1-ΔN[Ser422Asp], PKBα from pEBG-2T-PKBα[Ser473Asp] (Biondi et al., D. R. Embo J 20, 4380-90. (2001)), PKCl from pEBG-2T-PKCl and PKCζ from pEBG-2T-PKCζ. PDK1 and S6K1 were expressed in Sf9 insect cells using a baculovirus expression system from pFastBac-PDK1 and pFastBac-56K1-T2[Thr412Glu].
The protein kinase activity assays were performed essentially as previously described (Engel, M. et al. Embo J 25, 5469-80 (2006)). The assays were done in a 96-well format and 4 μl aliquots spotted on P81 phospho-cellulose papers (Whatman) using epMotion 5070 (Eppendorf), washed in 0.01% phosphoric acid, dried, and then exposed and analyzed using PhosphoImager technology (FLA-9000 Starion, Fujifilm). Atypical PKC (aPKC) activity assays were performed in a total volume of 20 μl containing 50 mM Tris-HCl pH 7.5, 0.05 mg/ml BSA, 0.1% (v/v) 2-mercaptoethanol, 10 mM MgCl2, 100 μM [γ^32P]ATP (5-50 cpm/pmol), 0.003% Brij, 30-50 ng of aPKC, and MBP (10 μM) or PSRtide (100 μM) as the substrate. After 15 min pre-incubation, the kinase reaction was started by addition of 6 μl of an ATP-Mg mix. When required, lipid activator (LA) phosphatidylserine (100 ng) or PKC lipid activator mix (1×) was included in the pre-incubation. Low basal activity and consistent activation of 1-592 PKCζ and 498 PKCζ by LA was obtained when the pre-incubation time was started by addition of the whole mix on the enzyme.
The substrates were T308tide (200 μM) for PDK1, Kemptide (100 μM) for PKA, and Crosstide (100 μM) for SGK, PKB, S6K, and PRK2. The activity assays for PKCα, β, θ, and δ were performed in the presence of PKC lipid activator mix (1×) using 3 μM of histone H1 as substrate.
The activity assays were performed in duplicates or triplicates (in the case of the temperature stability assay) with less than 10% difference between the duplicate pairs. The activity assays shown were repeated at least twice with similar results. Moreover, most of the assays shown were repeated multiple times with enzymes from independent purifications with similar results. Representative experiments are shown. […]

[2] = target: T1, GST-C1 (PKCl 131-186) / His-PKCl Δ223 interaction; test: AlphaScreen interaction assay GST-C1 / His-PKCι Δ223; assay type: binding
From the text: In FIG. 11 evidence is provided that the C1 domain directly interacts with the catalytic domain of PKCz. A novel assay is set-up to investigate the interaction between the C1 domain constructs fused to GST and the catalytic domain of atypical PKCs containing a 6×His-tag. The assay is based on the alphascreen technology using a donor bead coupled to anti-GST antibodies (to bind the GST-PSR-C1 or GST-C1 constructs derived from PKCl) and Ni-NTA acceptor beads that bind to His-PKCl Δ223 (catalytic domain). The interaction is measured by the emission of light from the acceptor beads that happens when the two beads are in close proximity. GST-PSR-C1 readily interacted with His-PKCl Δ223. […] PIFtide and HM polypeptides are known to interact with the PIF-pocket of AGC kinases. Thus, the assay provides evidence that polypeptides binding to the PIF-pocket displace the interaction. In addition, small compounds that inhibit both atypical PKC isoforms and have been co-crystallized with PDK1-PKCz chimera (e.g. PS315), also displace the interaction between the C1 domain and the catalytic domain. Together, the data highlight the important role of the PIF-pocket in the regulation of PKCs and the need to develop tools to improve the methods for drug development to the PIF-pocket on AGC kinases. […] Indeed modeling of the pseudosubstrate into the substrate-binding site, allows the interaction of the C1 domain with the external part of the helix α-C that is a main component of the PIF-pocket (FIG. 13). The invention further provides a method for the screening for compounds that interact with the PIF-pocket on PKC isoforms, PDK1 chimeras or other AGC kinases, as well as kits for said method and compounds identified by said method (aspects (10) to (12) of the invention).
(§1) The AlphaScreen assay was performed according to the manufacturer's general protocol (Perkin Elmer). […] Proteins and beads were incubated in the dark for 1 h 30 min at room temperature and the emission of light from the acceptor beads was measured in the EnVision reader (Perkin Elmer) and analyzed using the EnVision manager software.

[3] = target: T2, GST-PSR-C1 (PKCl 100-185) / His-PKCl Δ223 interaction; test: AlphaScreen interaction assay GST-PSR-C1 / His-PKCι Δ223; assay type: binding
From the text: In FIG. 11 evidence is provided that the C1 domain directly interacts with the catalytic domain of PKCz. A novel assay is set-up to investigate the interaction between the C1 domain constructs fused to GST and the catalytic domain of atypical PKCs containing a 6×His-tag. The assay is based on the alphascreen technology using a donor bead coupled to anti-GST antibodies (to bind the GST-PSR-C1 or GST-C1 constructs derived from PKCl) and Ni-NTA acceptor beads that bind to His-PKCl Δ223 (catalytic domain). The interaction is measured by the emission of light from the acceptor beads that happens when the two beads are in close proximity. GST-PSR-C1 readily interacted with His-PKCl Δ223. […] PIFtide and HM polypeptides are known to interact with the PIF-pocket of AGC kinases. Thus, the assay provides evidence that polypeptides binding to the PIF-pocket displace the interaction. […]
as §1

[4] = target: T3, PSRtide (biotin-KSIYRRGSRRWRKLYRA)

| Molecule | Effect on PDK1 activity [1] | Effect on interaction of GST-C1 with His-PKCι Δ223 [2] | Effect on interaction of GST-PSR-C1 with His-PKCι Δ223 [3] | specific activity (phosphorylation of PSRtide by full length PKCζ) [4] [nmol/mg/min] |
| --- | --- | --- | --- | --- |
| O=C(O)CC(Cc1nc2cc(Cl)ccc2[nH]1)c1ccc(Cl)cc1 (stereo not shown) [PS114] | Activation | – | – | – |
| RTWALCGTPEYLAPEIILKK (activation loop of PKA) | – | not | – | – |
| VGNQLPFIGFT(P)YFRENL (VGNQLPFIGFTYFRENL) [ROCK-pHM, ROCK HM peptide phosphorylated at the HM phosphorylation site] | – | not and not able to displace | not and not able to displace | – |
| VGNQLPFIGFTYFRENL (ROCK-HM) | – | displaced; also recorded: strongly diminished | displaced; also recorded: strongly diminished | – |
| GST-PKCζ wild type (1-592) (protein) MPSRTGPKMEGSGGRVRLKAHYGGDIFITSVDAATTFEELCEEVRDMCRLHQQHPLTLKWVDSEGDPCTVSSQMELEEAFRLARQCRDEGLIIHVFPSTPEQPGLPCPGEDKSIYRRGARRWRKLYRANGHLFQAKRFNRRAYCGQCSERIWGLARQGYRCINCKLLVHKRCHGLVPLTCRKHMDSVMPSQEPPVDDKNEDADLPSEETDGIAYISSSRKHDSIKDDSEDLKPVIDGMDGIKISQGLGLQDFDLIRVIGRGSYAKVLLVRLKKNDQIYAMKVVKKELVHDDEDIDWVQTEKHVFEQASSNPFLVGLHSCFQTTSRLFLVIEYVNGGDLMFHMQRQRKLPEEHARFYAAEICIALNFLHERGIIYRDLKLDNVLLDADGHIKLTDYGMCKEGLGPGDTTSTFCGTPNYIAPEILRGEEYGFSVDWWALGVLMFEMMAGRSPFDIITDNPDMNTEDYLFQVILEKPIRIPRFLSVKASHVLKGFLNKDPKERLGCRPQTGFSDIKSHAFFRSIDWDLLEKKQALPPFQPQITDDYGLDNFDTQFTSEPVQLTPDDEDAIKRIDQSEFEGFEYINPLLLSTEESV | – | – | – | 60 to 80 |
